From article PMC6275602 (Cellular & Molecular Biology Letters, 2012)
Read-outs that look alike come from different tables or passages of the source.

Key:
[1] = molecular target: T1, human low-density lipoprotein (LDL; d = 1.019-1.063 g/ml) (human); assay: SPR
[2] = molecular target: T1, human low-density lipoprotein (LDL; d = …); assay: SPR; remark: listed apart in the source

B1: sPLA2-X-HisTag, purified recombinant human (enzyme, UniProt O15496 43-165, looked up)
chain: GILELAGTVGCVGPRTPIAYMKYGCFCGLGGHGQPRDAIDWCCHGHDCCYTRAEEAGCSPKTERYSWQCVNQSVLCGPAENKCQELLCKCDQEIANCLAQTEYNLKYLFYPQFLCEPDSPKCD
- Kd [1]: 110 nM
- koff [1]: 0.00886 s⁻¹
- kon [1]: 82500 M⁻¹ s⁻¹
- Kd [2]: 3.1 nM
- koff [2]: 0.00024 s⁻¹
- kon [2]: 65400 M⁻¹ s⁻¹
